Our source for the deacetylation activity values is patent US20150177248.

The data set addresses T1, acetylated p53 peptide (p53-382/diAc), P04637.
T1 chain: RHKK

B1: SIRT7 (sirtuin 7) protein (protein)
chain: MAAGGLSRSERKAAERVRRLREEQQRERLRQVSRILRKAAAERSAEEGRLLAESADLVTELQGRSRRREGLKRRQEEVCDDPEELRGKVRELASAVRNAKYLVVYTGAGISTAASIPDYRGPNGVWTLLQKGRSVSAADLSEAEPTLTHMSITRLHEQKLVQHVVSQNCDGLHLRSGLPRTAISELHGNMYIEVCTSCVPNREYVRVFDVTERTALHRHQTGRTCHKCGTQLRDTIVHFGERGTLGQPLNWEAATEAASRADTILCLGSSLKVLKKYPRLWCMTKPPSRRPKLYIVNLQWTPKDDWAALKLHGKCDDVMRLLMAELGLEIPAYSRWQDPIFSLATPLRAGEEGSHSRKSLCRSREEAPPGDRGAPLSSAPILGGWFGRGCTKRTKRKKVT
Take B1: the deacetylation activity result is on record as “significantly increased”.
